Experimental findings from patent US12195506B2, “Immunotherapy with A*01 restricted peptides and combination of peptides against cancers and related methods” (Immatics Biotechnologies GmbH, priority 2018, dated 2025) are described below.

This assay addresses HLA-A*01:01 (Homo sapiens, UniProt P04439, A114D/A174V/A182V/D101N/D185E/E176A/E190D/L180R/Q94H/R68K/S129P/T187R/V100A/V91M/W191G). The experiment in a line: MHC binding assay: UV-ligand exchange, ELISA of stabilized MHC complexes (peptide exchange yield). To be noted: binding to HLA-A*01:01, UV-ligand exchange. The procedure, abridged: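 Peptide–MHC complexes were formed by UV-induced exchange of a photocleavable ligand for the test peptide. Exchange yield was measured by streptavidin-capture ELISA of 100-fold diluted complexes, detected with HRP anti-β2m at A450. Refolded HLA-A*02:01/MLA-001 monomers at 15-500 ng/ml served as standards.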
(In general: In an ELISA, binding on a coated surface is turned into a signal by an enzyme label.)
For the substance “339 (ESMDIFPLGW; listed as Homo sapiens) [compound 339]”, the Peptide exchange result was “++ (>20% = ++)”.
Regarding “340 (SVDSNLVAY; listed as Homo sapiens) [compound 340]”, the Peptide exchange entry was “+++ (>50 = +++)”.
The result for “341 (PANYLGKMTY; listed as Homo sapiens) [compound 341]” reads “+++ (>50 = +++)”.
The result for “342 (QTYMDGLLHY; listed as Homo sapiens) [compound 342]” reads “++++ (>75% = ++++)”; that for “343 (YFGNYFTYY; listed as Homo sapiens) [compound 343]”, “+ (>10% =+)”; that for “344 (AVNALQSVY; listed as Homo sapiens) [compound 344]”, “++ (>20% = ++)”.
Take “345 (NTMDAVPRIDHY; listed as Homo sapiens) [compound 345]”: the Peptide exchange result is “++++ (>75% = ++++)”.
The result for “346 (VAGLEAGVLY; listed as Homo sapiens) [compound 346]” reads “++ (>20% = ++)”.
For “347 (SADHPGLTF; listed as Homo sapiens) [compound 347]”, the Peptide exchange result is recorded as “++ (>20% = ++)”.
The result for “348 (DSTDGCLLSF; listed as Homo sapiens) [compound 348]” reads “++ (>20% = ++)”; that for “349 (HLLSVSLYY; listed as Homo sapiens) [compound 349]”, “+ (>10% =+)”; that for “350 (LTDPQVSYV; listed as Homo sapiens) [compound 350]”, “+++ (>50 = +++)”.
As for “351 (VLDPMLDFY; listed as Homo sapiens) [compound 351]”, the entry is “++++ (>75% = ++++)”.
The result for “352 (YPVVVAESMY; listed as Homo sapiens) [compound 352]” reads “++ (>20% = ++)”; that for “353 (RLNGSVASY; listed as Homo sapiens) [compound 353]”, “++ (>20% = ++)”.
With “354 (EIIRYIFAY; listed as Homo sapiens) [compound 354]”, the Peptide exchange result is listed as “++ (>20% = ++)”.
As for “355 (MADRGEARL; listed as Homo sapiens) [compound 355]”, the entry is “++ (>20% = ++)”.
Turning to “356 (NSENHILKY; listed as Homo sapiens) [compound 356]”, the Peptide exchange entry was “++++ (>75% = ++++)”.
The result for “357 (MSPDIALLYL; listed as Homo sapiens) [compound 357]” reads “+++ (>50 = +++)”; that for “358 (YMSPDIALLY; listed as Homo sapiens) [compound 358]”, “++++ (>75% = ++++)”.
As for “359 (NKEINYFMY; listed as Homo sapiens) [compound 359]”, the entry is “+++ (>50 = +++)”.
Turning to “360 (RFDDINQEF; listed as Homo sapiens) [compound 360]”, the Peptide exchange result is listed as “+ (>10% =+)”.
Regarding “361 (FTAEEGQLY; listed as Homo sapiens) [compound 361]”, the Peptide exchange entry is reported as “+++ (>50 = +++)”.
As for “362 (SGALDEAAAY; listed as Homo sapiens) [compound 362]”, the entry is “++ (>20% = ++)”.
The result for “363 (LTDRDVSFY; listed as Homo sapiens) [compound 363]” reads “++++ (>75% = ++++)”.
As for “364 (DTGYLQLYY; listed as Homo sapiens) [compound 364]”, the entry is “++++ (>75% = ++++)”; as for “365 (FVDTKVPEH; listed as Homo sapiens) [compound 365]”, “++ (>20% = ++)”; as for “366 (ITVDVRDEF; listed as Homo sapiens) [compound 366]”, “+ (>10% =+)”.
Regarding “367 (LTDTGYLQLY; listed as Homo sapiens) [compound 367]”, the Peptide exchange result is “++++ (>75% = ++++)”.
Consider “368 (ESAATGQLDY; listed as Homo sapiens) [compound 368]”, for which the Peptide exchange entry is reported as “+++ (>50 = +++)”.
As for “369 (AVMEAAFVY; listed as Homo sapiens) [compound 369]”, the entry is “+++ (>50 = +++)”; as for “370 (RLSTIRHLY; listed as Homo sapiens) [compound 370]”, “+++ (>50 = +++)”; as for “371 (WSDSTSQTIY; listed as Homo sapiens) [compound 371]”, “++++ (>75% = ++++)”.
As for “372 (SRSDFEWVY; listed as Homo sapiens) [compound 372]”, the entry is “++ (>20% = ++)”; as for “373 (FHADSDDESF; listed as Homo sapiens) [compound 373]”, “+ (>10% =+)”; as for “375 (ASSLDSLHY; listed as Homo sapiens) [compound 375]”, “++++ (>75% = ++++)”.
The result for “376 (EDDEDEDLY; listed as Homo sapiens) [compound 376]” reads “+++ (>50 = +++)”; that for “377 (YADPSANRDLL; listed as Homo sapiens) [compound 377]”, “++ (>20% = ++)”; that for “378 (TAKAPSTEY; listed as Homo sapiens) [compound 378]”, “++ (>20% = ++)”.
With “379 (SLIIDDTEY; listed as Homo sapiens) [compound 379]”, the Peptide exchange entry was “++ (>20% = ++)”.
The result for “380 (VACGNNPVY; listed as Homo sapiens) [compound 380]” reads “+++ (>50 = +++)”; that for “381 (ETSFSTSHY; listed as Homo sapiens) [compound 381]”, “++++ (>75% = ++++)”.
With “382 (YEPATMEQY; listed as Homo sapiens) [compound 382]”, the Peptide exchange entry is recorded as “++ (>20% = ++)”.
The result for “383 (PPDHAVGRTKY; listed as Homo sapiens) [compound 383]” reads “++ (>20% = ++)”; that for “384 (RFRSITQSYY; listed as Homo sapiens) [compound 384]”, “+ (>10% =+)”; that for “385 (SANALILTY; listed as Homo sapiens) [compound 385]”, “++ (>20% = ++)”.
The result for “388 (YTAHVGYSMY; listed as Homo sapiens) [compound 388]” reads “++++ (>75% = ++++)”.
The result for “389 (YYDLVESTF; listed as Homo sapiens) [compound 389]” reads “+ (>10% =+)”.
On to “390 (FSEPFHLIVSY; listed as Homo sapiens) [compound 390]”, for which the Peptide exchange entry was “++++ (>75% = ++++)”.
As for “391 (GSNPARYEF; listed as Homo sapiens) [compound 391]”, the entry is “++ (>20% = ++)”; as for “392 (TQHFVQENY; listed as Homo sapiens) [compound 392]”, “++ (>20% = ++)”; as for “393 (QVWGGQPVY; listed as Homo sapiens) [compound 393]”, “+ (>10% =+)”.
The result for “394 (QVPLDCVLY; listed as Homo sapiens) [compound 394]” reads “++ (>20% = ++)”.
The result for “395 (ILKGGSGTY; listed as Homo sapiens) [compound 395]” reads “++ (>20% = ++)”.
